Results reported in patent US20240084039A1.
Changes are numbered by the printed parent chain. One block for each binder: values may come before it.

How the values were obtained:
[1] = target: pre-existing anti-drug antibodies (ADA) present in human sera; assay: ELISA pre-existing ADA binding assay, confirmatory setup, test molecule coated, 40 human sera
[2] = target: pre-existing anti-drug antibodies (ADA) present in human sera; assay: ELISA pre-existing ADA binding assay, confirmatory setup, test molecule coated, 20 human sera
[3] = target: pre-existing anti-drug antibodies (ADA) present in human sera; assay: ELISA pre-existing ADA binding assay, confirmatory setup, test molecule coated, 20 human sera (second row for PRO1922)
[4] = target: pre-existing anti-drug antibodies (ADA) present in human sera; assay: ELISA pre-existing ADA binding assay, confirmatory setup, test molecule coated, 20 human sera (second row for PRO2230)

B3: PRO2765 (protein)
chain: DIQMTQSPASLSASVGDRVTITCQASQSIGTYLAWYQQKPGKPPKLLIYRAFILASGVPSRFSGSGSGTDFTLTISSLQPEDFATYYCQSNFYSDSTTIGPNAFGCGTKVTVLGGGGGSEVQLVESGGGRVQPGGSLRLSCAASGFSFSANYYPCWVRQAPGKGLEWIGCIYGGSSDITYDANWTKGRFTISRDNSKNTVYLQMNSLRAEDTATYYCARSAWYSGWGGDLWGQGTQVTVSSGGGGSGGGGSGGGGSGGGGSIQMTQSPSSLSASVGDRVTITCQASQSISNRLAWYQQKPGKAPKLLIYSASTLASGVPSRFSGSGSGTDFTLTISSLQPEDFATYYCQSTYYGNDGNAFGTGTKVTVLGGGGGSEVQLVESGGGRVQPGGSLRLSCAASGFSFNSDYWIYWVRQAPGKCLEWIASIYGGSSGNTQYASWAQGRFTISRDNSKNTVYLQMNSLRAEDTATYFCARGYVDYGGATDLWGQGTQVTVSSGGGGSGGGGSIQMTQSPSSLSASVGDRVTITCQSSESVYSNNQLSWYQQKPGQPPKLLIYDASDLASGVPSRFSGSGSGTDFTLTISSLQPEDFATYYCAGGFSSSSDTAFGCGTKLTVLGGGGGSGGGGSGGGGSGGGGSEVQLVESGGGRVQPGGSLRLSCAASGFSLSSNAMGWVRQAPGKCLEYIGIISVGGFTYYASWAKGRFTISRDNSKNTVYLQMNSLRAEDTATYFCARDRHGGDSSGAFYLWGQGTQVTVSS
% positives of total tested serum samples [1]: 2.5%
No of positive serum samples above 31.56% CCP (serum samples) [1]: 1

B5: PRO1922 (scFv)
scFv: DIQMTQSPSSLSASVGDRVTITCQASESIYSSLAWYQQKPGKAPKLLIYLASTLASGVPSRFSGSGSGTDFTLTISSLQPEDFATYYCQSTDYTTSTHRNSFGTGTKVTVLGGGGGSGGGGSGGGGSGGGGSEVQLVESGGGLVQPGGSLRLSCAASGFSFSTTYYMCWVRQAPGKGLEWIGCTNTASSVRTYYATWAKGRFTISRDNSKNTVYLQMNSLRAEDTAVYYCARDMGFADYALNLWGQGTLVTVSS
% positives of total tested serum samples [2]: 80%
No of positive serum samples above 30% CCP (serum samples) [2]: 16
% positives of total tested serum samples [3]: 80%
No of positive serum samples above 30% CCP (serum samples) [3]: 16

B6: NM21-1480 (PRO1480) (protein)
chain: DIQMTQSPASLSASVGDRVTITCQASQSIGTYLAWYQQKPGKPPKLLIYRAFILASGVPSRFSGSGSGTDFTLTISSLQPEDFATYYCQSNFYSDSTTIGPNAFGTGTKVTVLGGGGGSEVQLVESGGGLVQPGGSLRLSCAASGFSFSANYYPCWVRQAPGKGLEWIGCIYGGSSDITYDANWTKGRFTISRDNSKNTVYLQMNSLRAEDTAVYYCARSAWYSGWGGDLWGQGTLVTVSSGGGGSGGGGSGGGGSGGGGSIQMTQSPSSLSASVGDRVTITCQASQSISNRLAWYQQKPGKAPKLLIYSASTLASGVPSRFSGSGSGTDFTLTISSLQPEDFATYYCQSTYYGNDGNAFGTGTKVTVLGGGGGSEVQLVESGGGLVQPGGSLRLSCAASGFSFNSDYWIYWVRQAPGKGLEWIASIYGGSSGNTQYASWAQGRFTISRDNSKNTVYLQMNSLRAEDTAVYFCARGYVDYGGATDLWGQGTLVTVSSGGGGSGGGGSIQMTQSPSSLSASVGDRVTITCQSSESVYSNNQLSWYQQKPGQPPKLLIYDASDLASGVPSRFSGSGSGTDFTLTISSLQPEDFATYYCAGGFSSSSDTAFGGGTKLTVLGGGGGSGGGGSGGGGSGGGGSEVQLVESGGGLVQPGGSLRLSCAASGFSLSSNAMGWVRQAPGKGLEYIGIISVGGFTYYASWAKGRFTISRDNSKNTVYLQMNSLRAEDTATYFCARDRHGGDSSGAFYLWGQGTLVTVSS
% positives of total tested serum samples [1]: 22.5%
No of positive serum samples above 31.56% CCP (serum samples) [1]: 9

B7: PRO2764 (protein)
chain: B3 chain with C610G, C682G
% positives of total tested serum samples [1]: 2.5%
No of positive serum samples above 31.56% CCP (serum samples) [1]: 1

B9: PRO2760 (protein)
chain: B6 chain with L130R, N183Q, V214T, L236Q
% positives of total tested serum samples [1]: 25%
No of positive serum samples above 31.56% CCP (serum samples) [1]: 10

B11: PRO2758 (protein)
chain: B3 chain with C106T, N183Q, C420G, C610G, C682G
% positives of total tested serum samples [1]: 5%
No of positive serum samples above 31.56% CCP (serum samples) [1]: 2

B13: PRO2668 (protein)
chain: AFELTQSPSSLSASVGDRVTITCQASESINSRLAWYQQKPGQPPKLLIYDASDLTSGVPSRFSGSGSGTDFTLTISSLQPEDFATYYCQGYGGSSTTTFGCGTKLTVLGGGGGSEVQLVESGGGRVQPGGSLRLSCAASGFSLSSYDMSWVRQAPGKGLAWIGASYASGPTYYASWAKGRFTISRDNSKNTVYLQMNSLRAEDTATYFCARGGWTGTSHSNIWGQGTQVTVSSGGGGSGGGGSGGGGSGGGGSDIQMTQSPSSLSASVGDRVTITCQSSQSVFSNNYLAWFQQKPGQSPKRLIYSASTLASGVPSRFSGSGSGTDFTLTISSLQPEDFATYYCLGSYACSSADCYVFGTGTKVTVLGGGGGSEVQLVESGGGRVQPGGSLRLSCAASGFSLSSYAMNWVRQAPGKCLEWIGHINAGDIAYYATWAKGRFTISRDNSKNTVYLQMNSLRAEDTATYFCARGAGGFSTGPFKLWGQGTQVTVSSGGGGSGGGGSAQQLTQSPSSLSASVGDRVTITCQASQNVWNNNYLSWFQQKPGKPPKLLIVTASTLASGVSSRFSGSGSGTDFTLTISSLQPEDFATYYCAGGFSGEIRAFGCGTKVTVLGGGGGSGGGGSGGGGSGGGGSQSQLVESGGGRVQPGGSLRLSCAVSGLSLSRNAMSWVRQAPGKCLEWIGIILTSGSTYYASWAKGRFTISKDNSKNTVYLQMNSLRAEDTATYFCVRGIASSSLKSFWGQGTQVTVSS
% positives of total tested serum samples [2]: 0%
No of positive serum samples above 30% CCP (serum samples) [2]: 0

B14: PRO2510 (protein)
chain: B13 chain with R125L, Q228L, R383L, T464V, Q487L, R644L, T725V, Q746L
% positives of total tested serum samples [2]: 15%
No of positive serum samples above 30% CCP (serum samples) [2]: 3

Next, values leading:

% positives of total tested serum samples [1]: 7.5%
No of positive serum samples above 31.56% CCP (serum samples) [1]: 3
B1: PRO2762 (protein)
chain: B3 chain with N183Q, C610G, C682G

% positives of total tested serum samples [1]: 2.5%
No of positive serum samples above 31.56% CCP (serum samples) [1]: 1
B2: PRO2763 (protein)
chain: B3 chain with N183Q

% positives of total tested serum samples [2]: 5%
No of positive serum samples above 30% CCP (serum samples) [2]: 1
B4: PRO2669 (protein)
chain 1: DVQMTQSPSSLSASVGDRVTITCRASENIYSGLAWYQQKPGKPPKLLIYRASTLASGVSSRFSGSGSGTDFTLTISSLQPEDFATYYCQGGYYSSSSTYIAFGTGTKVTVLGGGGGSGGGGSGGGGSGGGGSQSQVVESGGGRVQPGGSLRLSCAVSGFDLSSYAVSWVRQAPGKGLEWIGIIYPRANTYYASWAKGRFTISKDNSKNTVYLQMNSLRAEDTATYFCARDRYDSGAYLYTTYFNLWGQGTQVTVSSGGGGSGGGGSAFELTQSPSSLSASVGDRVTITCQASESINSRLAWYQQKPGQPPKLLIYDASDLTSGVPSRFSGSGSGTDFTLTISSLQPEDFATYYCQGYGGSSTTTFGCGTKLTVLGGGSGGSDIQMTQSPSSLSASVGDRVTITCQSSQSVFSNNYLAWFQQKPGQSPKRLIYSASTLASGVPSRFSGSGSGTDFTLTISSLQPEDFATYYCLGSYACSSADCYVFGTGTKVTVLG
chain 2: DVQMTQSPSSLSASVGDRVTITCRASENIYSGLAWYQQKPGKPPKLLIYRASTLASGVSSRFSGSGSGTDFTLTISSLQPEDFATYYCQGGYYSSSSTYIAFGTGTKVTVLGGGGGSGGGGSGGGGSGGGGSQSQVVESGGGRVQPGGSLRLSCAVSGFDLSSYAVSWVRQAPGKGLEWIGIIYPRANTYYASWAKGRFTISKDNSKNTVYLQMNSLRAEDTATYFCARDRYDSGAYLYTTYFNLWGQGTQVTVSSGGGGSGGGGSEVQLVESGGGRVQPGGSLRLSCAASGFSLSSYDMSWVRQAPGKGLAWIGASYASGPTYYASWAKGRFTISRDNSKNTVYLQMNSLRAEDTATYFCARGGWTGTSHSNIWGQGTQVTVSSGGGSGGGSGGGSGEVQLVESGGGRVQPGGSLRLSCAASGFSLSSYAMNWVRQAPGKCLEWIGHINAGDIAYYATWAKGRFTISRDNSKNTVYLQMNSLRAEDTATYFCARGAGGFSTGPFKLWGQGTQVTVSS

% positives of total tested serum samples [1]: 15%
No of positive serum samples above 31.56% CCP (serum samples) [1]: 6
B8: PRO2759 (protein)
chain: B6 chain with N183Q, L386R, V470T, L492Q

% positives of total tested serum samples [1]: 7.5%
No of positive serum samples above 31.56% CCP (serum samples) [1]: 3
B10: PRO2761 (protein)
chain: B6 chain with N183Q, L649R, L754Q

% positives of total tested serum samples [2]: 90%
No of positive serum samples above 30% CCP (serum samples) [2]: 18
% positives of total tested serum samples [4]: 76%
No of positive serum samples above 30% CCP (serum samples) [4]: 15
B12: PRO2230 (scFv)
scFv: DIQMTQSPASLSASVGDRVTITCQASQSIGTYLAWYQQKPGKPPKLLIYRAFILASGVPSRFSGSGSGTDFTLTISSLQPEDFATYYCQSNFYSDSTTIGPNAFGTGTKVTVLGGGGGSGGGGSGGGGSGGGGSEVQLVESGGGLVQPGGSLRLSCAASGFSFNSDYWIYWVRQAPGKGLEWIASIYGGSSGNTQYASWAQGRFTISRDNSKNTVYLQMNSLRAEDTAVYFCARGYVDYGGATDLWGQGTLVTVSS
